The target in assay [1] is T1, KRAS G12V peptide on HLA-DRB1*11:01 (human).
T1 peptide: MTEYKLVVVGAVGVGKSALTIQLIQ
The assay is described as follows: cytokine release. On the procedure: (§1) ELISA assays were performed by incubating 50,000 T cells in 96 well round bottom plates with 100,000 autologous B cells or B-LCL lines pulsed with specific concentrations of peptides in RPMI (GIBCO™) supplemented with 5% heat inactivated fetal bovine serum. IFN-γ in supernatants was diluted 1:1, 1:10, and 1:100 and quantitated using human IFN-γ ELISA kit (EBIOSCIENCE™) in technical duplicate or triplicate. HLA blocking experiments were carried out by adding 20 μg/ml antibody anti class I (BIOLEGEND®, cat. 311411) anti HLA DR (BIOLEGEND® clone L243, cat. 307611) or HLA-DQ (ABCAM™, clone spv-I3, cat. ab23632) to the antigen presenting cells one hour prior to adding peptide. ELISpot assays were performed by incubating 20,000-100,000 T cells with 200,000 autologous B cells pulsed with 20 μg/ml of each peptide in CTL medium using the human IFN-γ ELISPOT-PRO™ kit (MABTECH™) according to the manufacturer's instructions. For intracellular IFN-γ staining, PBMC (100,000) were incubated with autologous B cells (100,000) pulsed with the indicated peptides (20 μg/ml) in the presence of brefeldin A (GOLGIPLUG™, BD BIOSCIENCES™) and then fixed and permeabilized using the BD™ intracellular staining kit (BD BIOSCIENCES™) and analyzed using a FACSCANTO™ II flow cytometer.

Assay [2] addresses T2, KRAS G12V peptide on HLA-DRB1*11:04 (human).
T2 peptide: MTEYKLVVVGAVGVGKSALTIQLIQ
As to the kind of experiment: cytokine release. On the procedure:
as §1

B1: KRAS G12V clone 3 TCR (TCR, V domains shown)
Valpha: AQSVTQPDIHITVSEGASLELRCNYSYGATPYLFWYVQSPGQGLQLLLKYFSGDTLVQGIKGFEAEFKRSQSSFNLRKPSVHWSDAAEYFCAVGRSNSGGYQKVTFGIGTKLQVIP
Vbeta: IHQWPATLVQPVGSPLSLECTVEGTSNPNLYWYRQAAGRGLQLLFYSVGIGQISSEVPQNLSASRPQDRQFILSSKKLLLSDSGFYLCAWSALAGARDTQYFGPGTRLTVL
For the molecule B1, the binding result in assay [1] and in assay [2] was “recognises” throughout.

B2: KRAS G12V clone 9 TCR (TCR, V domains shown)
Valpha: SVSQHNHHVILSEAASLELGCNYSYGGTVNLFWYVQYPGQHLQLLLKYFSGDPLVKGIKGFEAEFIKSKFSFNLRKPSVQWSDTAEYFCAVTVVNAGNNRKLIWGLGTSLAVNP
Vbeta: AGVIQSPRHEVTEMGQEVTLRCKPISGHDYLFWYRQTMMRGLELLIYFNNNVPIDDSGMPEDRFSAKMPNASFSTLKIQPSEPRDSAVYFCASSLGLPGTDTQYFGPGTRLTVL
As to B2, the binding result in assay [1] and in assay [2] was “recognises” in each case.

For the origin of these results see patent US20210340201A1 (published 2021).
